B1: bovine ZP3 fragment Arg-32 to Glu-178, N-terminal His-tag and S-tag [modified: N-glycosylated Asn-124 and Asn-146; N-glycosylated Asn-124 and Asn-146] [bovine] / bovine ZP4 (Lys-25 to Arg-464) with N-terminal FLAG-tag and … (parent)
chain 1: RFRPSKPPAVMVECQEAQLVVTVDKDLFGTGKLIRPADLTLGPDNCEPLASADTDGVVRFAVGLHECGNILQVTDNALVYSTFLLHNPRPAGNLSILRTNRAEVPIECHYPRQGNVSSWAIQPTWVPFRTTVFSEEKLVFSLRLMEE
chain 2: KVPEYPDELRCGLRSFQFTINPLSQETETPPVLVAWDNHGLPHSLQNDSDCGTWVSEGPGSSLVGEASYSGCYVTEWESYYIMTVGIERAGVSGSGAFIETKLFKCPVNLPDVPNAGLCDSVPVWDRLPCAPSPITQGDCKQLGCCYNSEEVISCYYGNTVTSHCTQDGHFSIAVSRNVTSPPLLLNSVHLAFRNDSECKPVMATHTFVLFRFPFTTCGTTKQITGKQAVYENELVAARDVRTWSRGSITRDSTFRLQVSCSYSASSSALPVNVQVLTLPPPLPETQPGNLTLELKIAKDKRYRSYYTASDYPVVKLLRDPIYVEVSIHQRTDPSLELRLDQCWATPGADALLQPQWPLLVNGCPYTGDNYQTKLIPVWEASDLPFPSHYQRFSISTFSFVDSVAKRALKGPVYLHCSASVCQPAGTPSCVTLCPARRRR

Variants of: B1
Experiment: co-precipitation (TALON resin pull-down of His-tagged ZP3 fragment, anti-FLAG Western blot quantified with NIH ImageJ)
Conditions: with bovine ZP4 (Lys-25 to Arg-464) with N-terminal FLAG-tag and S-tag [bovine]; parent: 100; read off a plot

Row | percent of parent [%] | Variant
1 | 130 | chain 1 RFRPSKPPAVMVECQEAQLVVTVDKDLFGTGKLIRPADLTLGPDNCEPLASADTDGVVRFAVGLHECGNILQVTDNALVYSTFLLHNPRPAGNLSILRTNRAEVPIECHYPRQGDVSSWAIQPTWVPFRTTVFSEEKLVFSLRLMEE [chain 1 N115D]
2 | 110 | chain 1 RFRPSKPPAVMVECQEAQLVVTVDKDLFGTGKLIRPADLTLGPDNCEPLASADTDGVVRFAVGLHECGNILQVTDNALVYSTFLLHNPRPAGDLSILRTNRAEVPIECHYPRQGDVSSWAIQPTWVPFRTTVFSEEKLVFSLRLMEE [chain 1 N93D N115D]
3 | 100 | chain 1 RFRPSKPPAVMVECQEAQLVVTVDKDLFGTGKLIRPADLTLGPDNCEPLASADTDGVVRFAVGLHECGNILQVTDNALVYSTFLLHNPRPAGDLSILRTNRAEVPIECHYPRQGNVSSWAIQPTWVPFRTTVFSEEKLVFSLRLMEE [chain 1 N93D]
